FireProtDB (doi:10.1016/s0167-4838(98)00243-x)
“And” between values parts separate entries of the source, which are not always exact repeats. Identical values can stand only once.

B1: Chitosanase, P33665 (parent)
chain: MHSQHRTARIALAVVLTAIPASLATAGVGYASTQASTAVKAGAGLDDPHKKEIAMELVSSAENSSLDWKAQYKYIEDIGDGRGYTGGIIGFCSGTGDMLELVQHYTDLEPGNILAKYLPALKKVNGSASHSGLGTPFTKDWATAAKDTVFQQAQNDERDRVYFDPAVSQAKADGLRALGQFAYYDAIVMHGPGNDPTSFGGIRKTAMKKARTPAQGGDETTYLNAFLDARKAAMLTEAAHDDTSRVDTEQRVFLKAGNLDLNPPLKWKTYGDPYVINS

Variants of: B1
Conditions: Streptomyces sp. (strain N174); pH 7; 42.7 °C; Thermal; CD; sodium phosphate 50 mM; transition: 3; reversible: yes(68%); structure 1CHK; whole UniProt chain shown

Variant | ddG of mutation (higher = less stable) [kcal/mol]
MHSQHRTARIALAVVLTAIPASLATAGVGYASTQASTAVKAGAGLDDPHKKEIAMELVSSAENSSLDFKAQYKYIEDIGDGRGYTGGIIGFCSGTGDMLELVQHYTDLEPGNILAKYLPALKKVNGSASHSGLGTPFTKDFATAAKDTVFQQAQNDERDRVYFDPAVSQAKADGLRALGQFAYYDAIVMHGPGNDPTSFGGIRKTAMKKARTPAQGGDETTYLNAFLDARKAAMLTEAAHDDTSRVDTEQRVFLKAGNLDLNPPLKWKTYGDPYVINS [W68F W141F] | 5.8

Same assay, conditions: Streptomyces sp. (strain N174); pH 7; 43.2 °C; Thermal; Fluorescence; sodium phosphate 50 mM; reversible: yes(80%); structure 1CHK; whole UniProt chain shown

Variant | ddG of mutation (higher = less stable) [kcal/mol]
MHSQHRTARIALAVVLTAIPASLATAGVGYASTQASTAVKAGAGLDDPHKKEIAMELVSSAENSSLDFKAQYKYIEDIGDGRGYTGGIIGFCSGTGDMLELVQHYTDLEPGNILAKYLPALKKVNGSASHSGLGTPFTKDFATAAKDTVFQQAQNDERDRVYFDPAVSQAKADGLRALGQFAYYDAIVMHGPGNDPTSFGGIRKTAMKKARTPAQGGDETTYLNAFLDARKAAMLTEAAHDDTSRVDTEQRVFLKAGNLDLNPPLKWKTYGDPYVINS [W68F W141F] | 8.03

Same assay, conditions: Streptomyces sp. (strain N174); pH 7; 52.2 °C; Thermal; CD; sodium phosphate 50 mM; transition: 3; reversible: yes(68%); structure 1CHK; whole UniProt chain shown

Variant | ddG of mutation (higher = less stable) [kcal/mol]
MHSQHRTARIALAVVLTAIPASLATAGVGYASTQASTAVKAGAGLDDPHKKEIAMELVSSAENSSLDFKAQYKYIEDIGDGRGYTGGIIGFCSGTGDMLELVQHYTDLEPGNILAKYLPALKKVNGSASHSGLGTPFTKDFATAAKDTVFQQAQNDERDRVYFDPAVSQAKADGLRALGQFAYYDAIVMHGPGNDPTSFGGIRKTAMKKARTPAQGGDETTYLNAFLDARKAAMLTEAAHDDTSRVDTEQRVFLKAGNLDLNPPLKWKTYGDPYVINS [W68F W141F] | 1.51

Same assay, conditions: Streptomyces sp. (strain N174); pH 7; Thermal; CD; sodium phosphate 50 mM; transition: 3; reversible: yes(68%); structure 1CHK; whole UniProt chain shown

Variant | change of melting temperature, mutant - wild type (higher = more stable) | unfolding enthalpy (van 't Hoff)
MHSQHRTARIALAVVLTAIPASLATAGVGYASTQASTAVKAGAGLDDPHKKEIAMELVSSAENSSLDFKAQYKYIEDIGDGRGYTGGIIGFCSGTGDMLELVQHYTDLEPGNILAKYLPALKKVNGSASHSGLGTPFTKDFATAAKDTVFQQAQNDERDRVYFDPAVSQAKADGLRALGQFAYYDAIVMHGPGNDPTSFGGIRKTAMKKARTPAQGGDETTYLNAFLDARKAAMLTEAAHDDTSRVDTEQRVFLKAGNLDLNPPLKWKTYGDPYVINS [W68F W141F] | -11.4 °C and -8 °C | 155 kcal/mol and 60 kcal/mol

Same assay, conditions: Streptomyces sp. (strain N174); pH 7; Thermal; Fluorescence; sodium phosphate 50 mM; reversible: yes(80%); structure 1CHK; whole UniProt chain shown

Variant | Tm [°C] | change of melting temperature, mutant - wild type (higher = more stable) [°C] | unfolding enthalpy (van 't Hoff) [kcal/mol]
MHSQHRTARIALAVVLTAIPASLATAGVGYASTQASTAVKAGAGLDDPHKKEIAMELVSSAENSSLDFKAQYKYIEDIGDGRGYTGGIIGFCSGTGDMLELVQHYTDLEPGNILAKYLPALKKVNGSASHSGLGTPFTKDFATAAKDTVFQQAQNDERDRVYFDPAVSQAKADGLRALGQFAYYDAIVMHGPGNDPTSFGGIRKTAMKKARTPAQGGDETTYLNAFLDARKAAMLTEAAHDDTSRVDTEQRVFLKAGNLDLNPPLKWKTYGDPYVINS [W68F W141F] | 31.2 | -12 | 204

Same assay, conditions: Streptomyces sp. (strain N174); pH 7; 42.7 °C; Thermal; CD; sodium phosphate 50 mM; transition: 3; reversible: yes(79%); structure 1CHK; whole UniProt chain shown

Variant | ddG of mutation (higher = less stable) [kcal/mol]
MHSQHRTARIALAVVLTAIPASLATAGVGYASTQASTAVKAGAGLDDPHKKEIAMELVSSAENSSLDWKAQYKYIEDIGDGRGYTGGIIGFCSGTGDMLELVQHYTDLEPGNILAKYLPALKKVNGSASHSGLGTPFTKDFATAAKDTVFQQAQNDERDRVYFDPAVSQAKADGLRALGQFAYYDAIVMHGPGNDPTSFGGIRKTAMKKARTPAQGGDETTYLNAFLDARKAAMLTEAAHDDTSRVDTEQRVFLKAGNLDLNPPLKWKTYGDPYVINS [W141F] | 3.91

Same assay, conditions: Streptomyces sp. (strain N174); pH 7; 43.2 °C; Thermal; Fluorescence; sodium phosphate 50 mM; reversible: yes(77%); structure 1CHK; whole UniProt chain shown

Variant | ddG of mutation (higher = less stable) [kcal/mol]
MHSQHRTARIALAVVLTAIPASLATAGVGYASTQASTAVKAGAGLDDPHKKEIAMELVSSAENSSLDWKAQYKYIEDIGDGRGYTGGIIGFCSGTGDMLELVQHYTDLEPGNILAKYLPALKKVNGSASHSGLGTPFTKDFATAAKDTVFQQAQNDERDRVYFDPAVSQAKADGLRALGQFAYYDAIVMHGPGNDPTSFGGIRKTAMKKARTPAQGGDETTYLNAFLDARKAAMLTEAAHDDTSRVDTEQRVFLKAGNLDLNPPLKWKTYGDPYVINS [W141F] | 4.27

Same assay, conditions: Streptomyces sp. (strain N174); pH 7; 52.2 °C; Thermal; CD; sodium phosphate 50 mM; transition: 3; reversible: yes(79%); structure 1CHK; whole UniProt chain shown

Variant | ddG of mutation (higher = less stable) [kcal/mol]
MHSQHRTARIALAVVLTAIPASLATAGVGYASTQASTAVKAGAGLDDPHKKEIAMELVSSAENSSLDWKAQYKYIEDIGDGRGYTGGIIGFCSGTGDMLELVQHYTDLEPGNILAKYLPALKKVNGSASHSGLGTPFTKDFATAAKDTVFQQAQNDERDRVYFDPAVSQAKADGLRALGQFAYYDAIVMHGPGNDPTSFGGIRKTAMKKARTPAQGGDETTYLNAFLDARKAAMLTEAAHDDTSRVDTEQRVFLKAGNLDLNPPLKWKTYGDPYVINS [W141F] | 1.89

Same assay, conditions: Streptomyces sp. (strain N174); pH 7; Thermal; CD; sodium phosphate 50 mM; transition: 3; reversible: yes(79%); structure 1CHK; whole UniProt chain shown

Variant | change of melting temperature, mutant - wild type (higher = more stable) | unfolding enthalpy (van 't Hoff)
MHSQHRTARIALAVVLTAIPASLATAGVGYASTQASTAVKAGAGLDDPHKKEIAMELVSSAENSSLDWKAQYKYIEDIGDGRGYTGGIIGFCSGTGDMLELVQHYTDLEPGNILAKYLPALKKVNGSASHSGLGTPFTKDFATAAKDTVFQQAQNDERDRVYFDPAVSQAKADGLRALGQFAYYDAIVMHGPGNDPTSFGGIRKTAMKKARTPAQGGDETTYLNAFLDARKAAMLTEAAHDDTSRVDTEQRVFLKAGNLDLNPPLKWKTYGDPYVINS [W141F] | -7.1 °C and -7.5 °C | 170 kcal/mol and 80 kcal/mol
